Literature values as cited in publication PMC8494837.

Target: Ubiquitin (Homo sapiens) (UniProt P0CG47)

CXCR4, sequence (P61073 whole entry): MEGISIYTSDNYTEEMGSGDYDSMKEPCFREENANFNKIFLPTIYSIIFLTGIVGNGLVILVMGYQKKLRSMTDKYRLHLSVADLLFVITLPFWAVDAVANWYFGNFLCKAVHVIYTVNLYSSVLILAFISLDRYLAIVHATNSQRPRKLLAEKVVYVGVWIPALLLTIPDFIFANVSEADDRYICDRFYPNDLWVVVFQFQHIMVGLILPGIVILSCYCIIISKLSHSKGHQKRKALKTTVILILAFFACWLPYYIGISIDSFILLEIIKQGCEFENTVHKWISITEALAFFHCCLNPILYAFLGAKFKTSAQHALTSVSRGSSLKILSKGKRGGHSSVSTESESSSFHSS

**Q.** With CXCR4 (from UniProt P61073) as the substance, how does the Kd read?
**A.** Its Kd is 84 nM.
